Results on one molecule are retold here after patent US12371456B2, “Proteins for the treatment of epithelial barrier function disorders” (Genevive, Inc., priority 2017, dated 2025).

Assay [1] deals with DSS model of inflammatory bowel disease. Kind of assay: DSS model: 4 KDa-FITC dextran translocation across the epithelial barrier. It is filed as in vivo, C57BL/6 mice. The following applies: 50 nmoles/kg i.p. b.i.d., 2.5% DSS 6 days; FIG. 6. On the procedure: Eight-week old C57BL/6 mice were housed 5 animals were cage and given food and water ad libitum for 7 days. Following the 7-day acclimation period, treatments were initiated concurrently with addition of 2.5% DSS to the drinking water. […] The mice were treated with 2.5% dextran sodium sulfate (DSS) in their drinking water for 6 days. Treatments were continued with SG-14 or […]-GLP2 twice a day (b.i.d.) in the morning and evening (every 8 and 16 hr) with i.p. injections at 50 nmoles/kg. Fresh 2.5% DSS drinking water was prepared every 2 days. On day six, mice were fasted for four hours and then orally gavaged with 600 mg/kg 4 KDa dextran labeled with fluorescein isothiocyanate (FITC) [4 KDa-FITC]. One hour after the 4 KDa-FITC gavage mice were euthanized, blood was collected and FITC signal was measured in serum. […] Results are shown in FIG. 6, and are presented as mean SEM. The graph in FIG. 6 represents data pooled from the single experiment (n=10).

The subject of assay [2] is LPS binding protein (LBP). Kind of assay: DSS model: LPS binding protein (LBP) in serum by ELISA. In kind it is in vivo, C57BL/6 mice. The following applies: 50 nmoles/kg i.p. b.i.d., 2.5% DSS; FIG. 7. On the procedure:
(§1) Eight-week old C57BL/6 mice were housed 5 animals were cage and given food and water ad libitum for 7 days. Following the 7-day acclimation period, treatments were initiated concurrently with addition of 2.5% DSS to the drinking water. […] The mice were treated with 2.5% dextran sodium sulfate (DSS) in their drinking water for 6 days. Treatments were continued with SG-14 or Gly2-GLP2 twice a day (b.i.d.) in the morning and evening (every 8 and 16 hr) with i.p. injections at 50 nmoles/kg. Fresh 2.5% DSS drinking water was prepared every 2 days.
SG-14 was also assessed for its effects on the levels of LPS binding protein (LBP) in the blood of the DSS animal with and without SG-14 administration. LPS binding protein (LBP), which has been linked to clinical disease activity in subjects with inflammatory bowel disease, was also measured by ELISA in the serum of mice tested in the DSS model described in Example 7. […] Results are shown in FIG. 7, and are presented as mean f SEM. The graph in FIG. 7 represents data pooled from the single experiment (n=10).
In general terms: ELISA stands for enzyme-linked immunosorbent assay.

In assay [3] the test system is DSS model of inflammatory bowel disease. Kind of assay: DSS model: body weight. It is filed as in vivo, C57BL/6 mice. As to conditions: 50 nmoles/kg i.p. b.i.d., 2.5% DSS; FIG. 8. On the procedure: as §1, with “SG-14 or […]-GLP2 twice a” for “SG-14 or Gly2-GLP2 twice a”, “2 days. Body weight was measured daily from mice included in the DSS model described in this Example. Percent change from starting weight on day 0 was determined for each mouse. […] The graph in FIG. 8 represents data pooled from the single experiment (n=10).” for “2 days.”

The test system of the next assay is TNF-α. Kind of assay: TNF-α production by monocytes in co-culture TEER assay (Luminex). In kind it is cell-based, human. The following applies: pre-incubated 6 hours prior to HK E. coli; FIG. 2A. On the procedure: (§2) Production of the pro-inflammatory cytokines TNF-α and IL-23 by monocytes was measured in the tissue culture supernatant from the basolateral chamber of the co-culture TEER assay performed in Example 2. Following TEER readings, the supernatants were centrifuged at 10,000 g for 5 minutes at 4° C. to remove cell debris. Luminex analysis was performed according to the manufacturer's instructions (Magpix instrument and xPonent software version 4.2; Luminex Corporation (Austin, TX)). Luminex analysis was performed to determine the pg/ml concentration of TNF-α and IL-23 produced by monocytes. Luminex analysis utilizes a bead-based system for quantification of multiple cytokines from a single sample. Like an ELISA, Luminex beads are coated with a capture antibody, and incubation with samples allows the target to bind to the capture antibody. Beads are washed and incubated with a fluorescently labeled detection antibody for quantification of bound target. Cytometric analysis is used to differentiate bead populations, which are loaded with differential fluorescent dyes, and to quantify cytokine levels by measuring detection antibody signal. TNF-α production in untreated cells and cells pre-incubated with SG-14 for 6 hours prior to HK E. coli treatment were normalized to pg/ml concentrations elicited by HK E. coli which was set to 1.0. […]

The subject of a further assay is IL-23. Kind of assay: IL-23 production by monocytes in co-culture TEER assay (Luminex). In kind it is cell-based, human. As to conditions: pre-incubated 6 hours prior to HK E. coli; p=0.80; FIG. 2B. As for the experimental part: as §2
Another assay relates to IL-10. Kind of assay: IL-10 production by monocytes in co-culture TEER assay (Luminex). As to conditions: pre-incubated 6 hours prior to HK E. coli; FIG. 3. In kind it is cell-based, human. On the procedure: IL-10 production was measured in tissue culture supernatant from the basolateral chamber of the co-culture TEER assay described in Example 2 containing monocytes. Luminex analysis was performed to determine the pg/ml concentration of IL-10 produced by the monocytes. IL-10 production in untreated cells and cells pre-incubated with SG-14 for 6 hours prior to HK E. coli treatment were normalized to pg/ml concentrations elicited by HK E. coli which was set to 1.0. Pre-incubation with SG-14 increased IL-10 production to 1.21. The graph in FIG. 3 represents data pooled from two individual experiments (n=6).

Assay [4] concerns DSS model of inflammatory bowel disease. In words: DSS model: colon length and colon weight to length ratio. In kind it is in vivo, C57BL/6 mice. As to conditions: DSS treated mice. As for the experimental part:
as §1, with “SG-14 or […]-GLP2 twice a” for “SG-14 or Gly2-GLP2 twice a”, “2 days. Colon length was measured in mice included in the DSS model described in Example 7. […] The graphs in FIG. 10 and FIG. 11 represent data pooled from the single experiment (n=10).” for “2 days.”

Assay [5] concerns HCT8 enterocytes and HT29-MTX goblet cells (epithelial monolayer) co-cultured with U937 monocytes. In words: Co-culture trans-epithelial electrical resistance (TEER) assay, barrier disruption by heat killed E. coli. It is filed as cell-based, human.
Protocol: Assays were performed as described below in trans-well plates where co-cultures of multiple cell types were performed utilizing a permeable membrane to separate cells. In the apical (top) chamber, human colonic epithelial cells, consisting of a mixture of enterocytes and goblet cells, were cultured until cells obtained tight junction formation and barrier function capacity as assessed by measurement of trans-epithelial electrical resistance (TEER). In the basolateral chamber, monocytes were cultured separately. Epithelial cells were primed with inflammatory cytokines.
Cell culture. The HCT8 human enterocyte cell line (ATCC Cat. No. CCL-244) was maintained in RPMI-1640 medium supplemented with 10% fetal bovine serum, 100 IU/ml penicillin, 100 µg/ml streptomycin, 10 µg/ml gentamicin and 0.25 µg/ml amphotericin (cRPMI). HT29-MTX human goblet cells (Sigma-Aldrich (St. Louis, MO; Cat. No. 12040401) were maintained in DMEM medium with 10% fetal bovine serum, 100 IU/ml penicillin, 100 µg/ml streptomycin, 10 µg/ml gentamicin and 0.25 µg/ml amphotericin (cDMEM). Epithelial cells were passaged by trypsinization and were used between 5 and 15 passages following thawing from liquid nitrogen stocks. U937 monocytes (ATCC Cat. No. 700928) were maintained in cRPMI medium as a suspension culture, and split by dilution as needed to maintain cells between 5×10^5 and 2×10^6 cells/ml. U937 cells were used up to passage 18 following thawing from liquid nitrogen stocks.
Epithelial cell culture. A mixture of HCT8 enterocytes and HT29-MTX goblet cells were plated at a 9:1 ratio, respectively, in the apical chamber of the transwell plate as described previously (Berget et al., 2017, Int J Mol Sci, 18:1573; Beduneau et al., 2014, Eur J Pharm Biopharm, 87:290-298). […] Epithelial cells were trypsinized from culture flasks and viable cells determined by trypan blue counting. […]
Co-culture assay. […] Trans-epithelial electrical resistance (TEER) readings were measured after the IFN-γ treatment and were used as the pre-treatment TEER values. […]

B1: SG-14: Eubacterium eligens protein comprising SEQ ID NO:3; tested form expressed in E. coli, with exogenous GPLG at N-terminus and PHRD at C-terminus (protein)
chain: GCARNSTSTTTASGGETTITSAITKEDTDVTHADDAENYRVSITGDFTVTSDTSDGVTQSGSVYTITKAGEYTVTGLLSEGQLIVDAGNENEVTIVLNGTSITCSSGSPIYVKNASEVKIKSEENSFNEVIDNRNEATEDSSDDAGNAAIYATCDLKLVGKGALVVTGNYNNGIQSKDDLSIKNVIVKVTAVNNAVKVNDAVDIESGNIIAISAKGDGIKTSNSSISNKGNQKGIVTITSGNIDIYAACDGIDASYGADISGDGNLNIYTDTYSEYSEEVTSSGSSSGTSSGRDSSANKSASANTVSYVATSDTIANAPSGFGGGNMGSGNAPDMSNGNAPNMNGSSDRNKTGGNRPGMPGDFNESGNSSGQSYSTKGIKAESEINISGFTINICSTDDGIHANSDSGVLETGEDGKGTIVINGGSITISSGDDGMHADKQLDVNDGYINVVTSYEGLEAMTINLNGGKIYVYATDDGINACTGDGKTSPIVNVTGGYIDVTTTSGDTDGIDSNGNYVQTGGFVLVKGGSSSGNVSGSIDVDGTVTITGGTCVALGGVCETPVNSANAYVLGSVSFSSGSYSLKDSSGNEVISFTVDGSFSNGWICSDTLTTGSSYTLYRGADSIADWTQE
modifications: N-terminal GPLG and C-terminal PHRD
As for B1, in assay [1], the “4 KDa-FITC dextran in serum vs DSS mice treated with vehicle” value is on record as “significant reduction” and the “Magnitude of 4 KDa-FITC dextran translocation vs Gly2-GLP2” value was “even lower than the positive control”. In assay [2], the “Serum LBP concentration vs DSS mice treated with vehicle” value was “significant reduction” and the “Serum LBP concentration vs control peptide Gly2-GLP2” value was “greater impact on LBP concentration”. The “Body weight (percent change from day 0) vs vehicle treated DSS mice” value in assay [3] was “significantly improved body weight”. Also, in the assay on TNF-α, the “TNF-α production normalized to HK E. coli (set to 1.0)” value worked out at 0.77. Also, the “IL-23 production normalized to HK E. coli (set to 1.0)” value in the assay on IL-23 was determined as 1.1. In the assay with IL-10, the “IL-10 production normalized to HK E. coli (set to 1.0)” value is given as 1.21. The Colon length entry in assay [4] (FIG. 10) is listed as “prevented colon shortening”. Besides, the “Ratio between colon weight and length” value in assay [4] (FIG. 11) is “significant reduction”. The “TEER of epithelial cell barrier (percent of untreated)” value in assay [5] (SG-14 1 pg/ml (40 nM) added 1 hour (FIG. 1A; text also says 30 minutes) before HK E. coli, HK E. coli alone 70.0%) was 72.2%. In addition, the “TEER of epithelial cell barrier (percent of untreated)” value in assay [5] (SG-14 1 pg/ml (40 nM) pre-incubated 6 hours before HK E. coli (FIG. 1B), without SG-14 71.4%) was found to be 78.7%.
